{"source": "patent US20150031754", "about": "“APTAMER MODULATORS OF ESTROGEN RECEPTORS” (RESEARCH FOUNDATION OF STATE UNIVERSITY OF NEW YORK AT …, published 2015)", "binders": {"B1": {"name": "AptER-4 (ssRNA)", "RNA": "GGGAGAAUUCAACUGCCAUCUAGGCCACAGCCGGCGGUCGAACACCAGAGGGCGACUUUGGGUAGUCGAGUAUUAAGUACUACAAGCUUCUGGACUCGGU"}, "B2": {"name": "AptER-1 (clone B63) (ssRNA)", "RNA": "GGGAGAAUUCAACUGCCAUCUAGGCCCACAGUUCAGAGGCACCGCGAACAAAACGCAAGACAGAGUGCCGACAAGAGCACUACAAGCUUCUGGACUCGGU"}}, "key": {"[1]": {"molecular_target": "hERα ligand-binding domain (Homo sapiens, UniProt P03372 P03372:282-595)", "sequence (P03372 282-595, one chain of several)": "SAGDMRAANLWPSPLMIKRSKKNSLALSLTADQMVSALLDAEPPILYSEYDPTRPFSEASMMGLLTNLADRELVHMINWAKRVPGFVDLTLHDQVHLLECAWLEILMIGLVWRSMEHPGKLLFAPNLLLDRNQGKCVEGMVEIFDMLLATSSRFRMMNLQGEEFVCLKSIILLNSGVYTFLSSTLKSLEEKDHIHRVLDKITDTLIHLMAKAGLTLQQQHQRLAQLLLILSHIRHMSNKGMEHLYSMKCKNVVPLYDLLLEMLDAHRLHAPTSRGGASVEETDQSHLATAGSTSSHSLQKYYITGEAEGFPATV", "test": "EMSA; 100 nM protein, 2.5 nM RNA", "conditions": "tags: GST fusion, baculovirus/insect cells, Invitrogen PV4543, label: 32P-CTP internal", "protocol": "Human ERα was incubated with ligands (40 nM to 5 μM E2 or OHT) or vehicle control (EtOH) at 37° C. for 10 min before addition of RNA. Regardless of the absence or presence of the ligands, hERα formed a complex with AptER-1 in the same way. In FIG. 12B, the ligand competition assays showing that the interaction between AptER-4 and hERα was not intervened by ligand-binding. Human ERα was incubated with 1 μM E2 or vehicle control (EtOH) before addition of AptER-4. Regardless of the absence or presence of the ligands, hERα formed a complex with AptER-4 in the same way. […] Proteins were 100 nM. In the presence of hERα, both aptamers were shifted. No binding activity to GST/hERα-LBD was detected.\nWhether the aptamers bind to LBD was examined in two ways. One approach was an EMSA to directly examine whether the aptamers bound to the GST/hERα-LBD construct. The recombinant human ERα-LBD purchased from Invitrogen was expressed as a GST-tagged fusion protein in baculovirus-infected insect cells. It contains amino acid 282 to 595 of hERα, with a calculated molecular weight of 62.80 kDa protein. According to the manufacturer's instruction, the concentration of functional receptor was determined by quantification of estrodial, [6, 7-³H9(N)] receptor complexes using a hydroxyapatite (HAP) assay. Binding reactions were set up with 2.5 nM radiolabeled aptamers and 100 nM protein. […]"}, "[2]": {"molecular_target": "T1, Human estrogen receptor alpha (hERα), full-length, unliganded (Homo sapiens, UniProt P03372 P03372:1-595)", "T1 sequence (P03372 whole entry, one chain of several)": "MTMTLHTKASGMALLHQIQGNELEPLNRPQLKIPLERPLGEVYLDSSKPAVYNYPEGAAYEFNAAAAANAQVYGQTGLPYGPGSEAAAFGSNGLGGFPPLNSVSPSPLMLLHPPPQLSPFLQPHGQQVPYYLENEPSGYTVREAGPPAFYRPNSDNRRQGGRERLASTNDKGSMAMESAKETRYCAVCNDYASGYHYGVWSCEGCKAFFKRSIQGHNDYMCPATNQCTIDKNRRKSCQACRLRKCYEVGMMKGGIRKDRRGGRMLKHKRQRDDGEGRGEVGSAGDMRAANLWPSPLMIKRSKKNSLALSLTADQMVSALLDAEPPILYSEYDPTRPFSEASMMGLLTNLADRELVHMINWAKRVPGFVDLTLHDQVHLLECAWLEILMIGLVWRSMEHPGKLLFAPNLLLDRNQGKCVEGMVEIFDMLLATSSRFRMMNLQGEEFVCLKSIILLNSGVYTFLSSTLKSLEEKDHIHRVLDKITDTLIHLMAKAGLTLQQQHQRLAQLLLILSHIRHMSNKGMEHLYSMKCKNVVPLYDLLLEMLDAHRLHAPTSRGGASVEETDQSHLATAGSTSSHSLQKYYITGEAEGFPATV", "test": "filter; same buffer, 37 C; Hill n>1", "conditions": "tags: none stated; baculovirus/insect cells; Invitrogen P2187 or EMD4 Biosciences 330655; label: 32P-CTP internal; predicted three-way junction with two long hairpins", "protocol": "(§1) The dissociation constant (Kd) of the AptER-1, -2, -3, and -4 were measured using a nitrocellulose filter binding assay. A constant trace amount of [γ-³²P]-CTP incorporated RNA aptamer (˜0.1 nM) was titrated with increasing amounts of the target protein ranging from 5 to 150 nM. The binding activity at each concentration was determined as % binding, by calculating the radioactive signal of the RNA-protein complex retained on the filter as a percentage of the signal at the highest protein concentration (saturated) used. The assays were performed in triplicates for each aptamer. A binding curve was constructed using Sigma Plot 9.0.1, with average binding affinity (% binding) as a function of the protein concentration using a sigmoidal equation (Hill equation, 3 parameters). Apparent Kd was the protein concentration where half of the maximal binding activity was achieved, and were calculated from the data points by using Sigma Plot. […] The first 3 aptamers were isolated in in vitro selection I, and their affinity rank explains the relative abundance in the final selected library. More specifically, it is believed that AptER-1 dominated the final selected pool because it was the strongest binder. AptER-4 was the weakest binder, and would not have been easily identified in the selection I libraries."}, "[3]": {"molecular_target": "T2, hERα DNA-binding domain (Homo sapiens, UniProt P03372 P03372:180-268)", "T2 sequence (P03372 180-268, one chain of several)": "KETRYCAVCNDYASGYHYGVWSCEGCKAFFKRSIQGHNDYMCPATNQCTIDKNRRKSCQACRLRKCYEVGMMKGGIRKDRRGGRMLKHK", "test": "DBD binding assay, method not specified", "conditions": "tags: N-terminal His6; E. coli BL21(DE3); label: 32P-CTP internal; predicted three-way junction with two long hairpins"}, "[4]": {"molecular_target": "T3, Human estrogen receptor beta (hERβ) (Homo sapiens, UniProt Q92731 Q92731:1-530)", "T3 sequence (Q92731 whole entry, one chain of several)": "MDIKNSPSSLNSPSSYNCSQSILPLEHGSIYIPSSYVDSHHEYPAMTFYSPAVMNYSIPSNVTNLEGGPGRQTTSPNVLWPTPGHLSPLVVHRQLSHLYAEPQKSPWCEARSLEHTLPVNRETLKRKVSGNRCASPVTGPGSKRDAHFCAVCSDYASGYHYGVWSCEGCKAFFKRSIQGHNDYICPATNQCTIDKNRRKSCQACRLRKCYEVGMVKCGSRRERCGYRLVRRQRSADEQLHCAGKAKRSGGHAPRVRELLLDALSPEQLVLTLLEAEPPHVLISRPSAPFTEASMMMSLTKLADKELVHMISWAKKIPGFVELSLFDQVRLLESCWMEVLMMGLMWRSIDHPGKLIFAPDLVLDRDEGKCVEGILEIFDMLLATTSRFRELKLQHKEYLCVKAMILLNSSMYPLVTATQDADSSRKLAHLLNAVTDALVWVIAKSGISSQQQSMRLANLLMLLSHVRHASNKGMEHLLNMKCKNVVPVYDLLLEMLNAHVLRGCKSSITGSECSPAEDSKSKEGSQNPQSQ", "test": "filter; affinity for hERβ too low to be determined", "conditions": "tags: none stated; baculovirus/insect cells; EMD4 Biosciences 330657; label: 32P-CTP internal; predicted three-way junction with two long hairpins"}, "[5]": {"molecular_target": "T2, hERα DNA-binding domain", "test": "EMSA; also no binding in filter assay", "conditions": "tags: N-terminal His6; E. coli BL21(DE3); label: 32P-CTP internal", "protocol": "No binding activity to RNase inhibitor (control) or DBD & RNase inhibitor was detected. The binding reactions were resolved on the same type of gel as above. […] End-radiolabeled ERE-50mer at 5 nM was mixed with 100× or 400× more concentrated unlabeled competitors ERE-50mer, AptER-1, -2 and -3 RNA or an early generation pool in hERα selection G1 before addition of hERα (40 nM). Only cold ERE-50mer disrupted radioactive ERE-hERα complex.\nClass I aptamers bound with similar affinities to both subtypes of ER, which share the highest homology (96%) in the DBD. This raised the possibility that the target site of Class I aptamers was located within the DBD. Whether the aptamers bind to the DBD was tested in binding assays using a recombinant hERα-DBD. It was expressed as a His₆-tagged fusion protein in E. coli BL21 (DE3) and purified as described in the Materials and Methods. To verify its ERE-binding capability, a DNA EMSA was performed. DNA oligo ERE-50mer contains a GAAA tetra loop, which forces the oligo to form a hairpin. A copy of Xenopus laevis vitellogenin A2 ERE (5′-[…]-3′, SEQ ID NO: 73) was presented in the stem of a hairpin. […] However, in both EMSA (FIG. 11B) and filter-binding assay, no association was detected between AptER-1 and DBD. […]"}, "[6]": {"molecular_target": "T1, Human estrogen receptor alpha (hERα), …", "test": "FP; filter-binding assay (nitrocellulose), 12 mM HEPES pH 7.6, 150 mM NaCl, 10 mM MgCl2, 37 C; Hill coefficient about 1", "conditions": "tags: none stated; baculovirus/insect cells; Invitrogen P2187 or EMD4 Biosciences 330655; label: 32P-CTP internal", "protocol": "as §1"}, "[7]": {"molecular_target": "T3, Human estrogen receptor beta (hERβ)", "test": "filter; text prints hERα for this 26 nM value but context compares with hERβ (probable typo)", "conditions": "tags: none stated; baculovirus/insect cells; EMD4 Biosciences 330657; label: 32P-CTP internal", "protocol": "as §1, with “A” for “The dissociation constant (Kd) of the AptER-1, -2, -3, and -4 were measured using a nitrocellulose filter binding assay. A”, “libraries. […]” for “libraries.”"}}, "data": [{"binder": "B1", "values": [{"measurement": "binding result", "setting": "[1]; predicted three-way junction with two long hairpins", "value": "no binding"}, {"measurement": "Kd", "setting": "[2]", "value": "~45", "unit": "nM"}, {"measurement": "binding result", "setting": "[3]", "value": "no binding"}, {"measurement": "binding result", "setting": "[4]", "value": "no binding"}]}, {"binder": "B2", "values": [{"measurement": "binding result", "setting": "[5]", "value": "no binding"}, {"measurement": "binding result", "setting": "[1]", "value": "no binding"}, {"measurement": "Kd", "setting": "[6]", "value": "~16", "unit": "nM"}, {"measurement": "Kd", "setting": "[7]", "value": "~26", "unit": "nM"}]}]}
